Experimental data as given in article PMC6269442, “High resolution X-ray and NMR structural study of human T-cell immunoglobulin and mucin domain containing protein-3” (Scientific Reports, 2018).

Biological target: T1, tagless human TIM-3 IgV domain (human, UniProt Q8TDQ0 24-130)
T1 construct: N-terminal methionine added before Val24; T-cell immunoglobulin and mucin domain containing protein-3 (TIM-3, HAVCR2), human, IgV domain, Val24 thru Lys130; the same tagless protein was used for crystallization and ELISA; also called tagless hTIM-3 IgV domain; hTIM-3 IgV domain
Experiment: ELISA; tagless hTIM-3 IgV (50 μl of 250 nM) coated on the plate; GST tagged hCEACAM1 IgV (0–15 μM) or GST control in Dulbeccos PBS; detected with goat polyclonal anti-GST-HRP
Details: both partners purified

T1 sequence (Q8TDQ0 other isoform, or with tags, fused parts or gaps): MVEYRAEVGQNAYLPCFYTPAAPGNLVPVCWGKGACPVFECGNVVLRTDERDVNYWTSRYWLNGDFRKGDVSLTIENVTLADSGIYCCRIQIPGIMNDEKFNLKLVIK

B1: glutathione-S-transferase (GST) tagged hCEACAM1 IgV-domain protein (domain or fragment, human, UniProt P13688 35-142, looked up)
chain: QLTTESMPFNVAEGKEVLLLVHNLPQQLFGYSWYKGERVDGNRQIVGYAIGTQQATPGPANSGRETIYPNASLLIQNVTQNDTGFYTLQVIKSDLVNEEATGQFHVYP
notes: carcinoembryonic antigen cell adhesion molecule 1 (CEACAM1), human, IgV (N-terminal) domain; Detected by an anti-GST-HRP antibody; also called GST-hCEACAM1 IgV fusion protein
Question: How did the EC50 turn out when B1 was run?
Answer: Its EC50 is 3.13 µM.
